Assay results taken from patent EP4725966A1, “HUMAN EPIDERMAL GROWTH FACTOR 3 ANTIBODY, PREPARATION METHOD THEREFOR, AND USE THEREOF” (priority 2023, dated 2024).

B1: mHE6 (antibody, V domains shown)
VH: EVQLQQSGPDLVKPGTSVKMSCKASGYTFTDYYMHWVRQSHGKSLEWIGYINPNNGDAIYNQKFKGKATLTVNKSSTTAYMALRSLTSEDSAVYFCATYDYGGDFYFDVWGTGTTVTVSS
VL: DIELTQSPALMSASPGEKVTMTCSASSSVSYMYWYQQKPRSSPKPWIYLTSNLASGVPARFSGSGSGTSYSLTISSMEAEDAATYYCQQWSRNPLTFGAGTKLELKR
B2: mHE1 (antibody, V domains shown)
VH: EVKLQESGPGLVKPSQSLSLTCSVTGYSITSGYYWNWIRQFPGNKLEWMGYISYDGSNNYNPSLKNRISITRDTSKNQFFLNLNSVTTEDTATYYCARVDWDGDAMDYWGQGTSVTVSS
VL: DIVLTQSPASLAVSLGQRATISCRASESVDNYGIRLMHWYQQKSGQPPKLLIHRASNLESGIPARFSGSGSRTDFTLTINPVETDDVATYYCQQSNKDPFTFGSGTKLEIKR
B3: mHE5 (antibody, V domains shown)
VH: EVQLQESGPGLVKPSQSLSLTCSVTGYSITSGYYWNWIRQFPGNKLEWMGYISYDGSNNYNPSLKNRISITRDTSKNQFFLKLNSVTTEDTATYYCASYDYDGDWFAYWGQGTLVTVSA
VL: DIVLTQSPASLAVSLGQRATISCRASESVDHYGSSFMHWYQQKPGQPPKLLIYRASNPESGIPARFSGSGSRTDFTLTINPVETDDVATYYCQQSNKDPPTFGGGTKLEIKR
B4: mHE2 (antibody, V domains shown)
VH: EVKLQESGPGLVKPSQSLSLTCSVTGYSITSGYYWNWIRQFPGNKLEWMGYISYDGSNNYNPSLKNRISITRDTSKNQFFLKLNSVTTEDTATYYCARMDWDGDAMDYWGQGTSVTVSS
VL: DIVLTQSPASLAVSLGQRATISCRASESVDNYGISLMHWYQQKPGQPPKLLIYRASNLESGIPARFSGSGSRTDFTLTINPVETDDVATYYCQQSNKDPPTFGAGTKLELKR
B5: mHE4 (antibody, V domains shown)
VH: EVQLVESGGGLVKPGGSLKLSCAASGFTFSSYVMSWVRQTPEKRLEWVATISDGDSSTYYPDNVKGRFTISRDNAKNNLFLQMSHLKSEDTAMYFCARDKGHGYDEGAFVYWGQGTLVTVSA
VL: DIQMTQSPASLSASVEETVTITCRASENIYSYLAWYQQKQGKSPQLLVYNAKTLAEGVPSRFSGSGSGTEFSLKINSLQPEDFGSYYCQNHYGTPYTFGGGTKLEIKQ

Key:
[1] = molecular target: cynomolgus HER3-ECD-His (cynomolgus monkey) (UniProt G7PIG5); test: ELISA on coated Cyno HER3
[2] = molecular target: human HER3-ECD-His (human) (UniProt P21860); test: ELISA on coated human HER3
[3] = molecular target: human HER3 on cells (human) (UniProt P21860); test: FACS on Human HER3-CHO cells

Chain of cynomolgus HER3-ECD-His (cynomolgus monkey) (G7PIG5 entry or part of it): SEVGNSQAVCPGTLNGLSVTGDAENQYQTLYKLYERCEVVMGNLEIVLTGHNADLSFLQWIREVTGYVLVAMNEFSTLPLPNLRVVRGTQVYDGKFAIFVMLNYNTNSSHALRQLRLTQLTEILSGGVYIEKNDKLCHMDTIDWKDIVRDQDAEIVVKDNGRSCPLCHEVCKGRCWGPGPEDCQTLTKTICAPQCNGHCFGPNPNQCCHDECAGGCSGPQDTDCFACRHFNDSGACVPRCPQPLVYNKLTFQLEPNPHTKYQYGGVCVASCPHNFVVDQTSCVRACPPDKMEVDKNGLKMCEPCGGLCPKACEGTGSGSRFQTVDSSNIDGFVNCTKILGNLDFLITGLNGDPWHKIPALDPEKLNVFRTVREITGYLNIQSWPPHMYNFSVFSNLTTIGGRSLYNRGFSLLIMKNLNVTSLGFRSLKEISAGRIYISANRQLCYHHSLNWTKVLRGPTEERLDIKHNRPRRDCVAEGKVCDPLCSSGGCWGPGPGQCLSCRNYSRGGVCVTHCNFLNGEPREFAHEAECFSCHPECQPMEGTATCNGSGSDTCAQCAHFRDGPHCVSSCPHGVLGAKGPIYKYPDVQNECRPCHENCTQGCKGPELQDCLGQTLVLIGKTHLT

| Binder | OD450 [1] [OD450] | OD450 [2] [OD450] | MFI [3] [MFI] |
| --- | --- | --- | --- |
| B1 | 1.51 | 2.12 | 205 |
| B2 | 1.77 | 1.86 | 173 |
| B3 | 1.82 | 1.9 | 224 |
| B4 | 1.77 | 1.96 | 195 |
| B5 | 1.87 | 2.07 | 199 |
